4 molecules from article PMC4464616, “SIRT6 protein deacetylase interacts with MYH DNA glycosylase, APE1 endonuclease, and Rad9–Rad1–Hus1 checkpoint clamp” (BMC Molecular Biology, 2015) can be followed below.

T1: mouse Myh (mMyh), recombinant (mouse, UniProt Q99P21 1-515)
T1 sequence (looked up): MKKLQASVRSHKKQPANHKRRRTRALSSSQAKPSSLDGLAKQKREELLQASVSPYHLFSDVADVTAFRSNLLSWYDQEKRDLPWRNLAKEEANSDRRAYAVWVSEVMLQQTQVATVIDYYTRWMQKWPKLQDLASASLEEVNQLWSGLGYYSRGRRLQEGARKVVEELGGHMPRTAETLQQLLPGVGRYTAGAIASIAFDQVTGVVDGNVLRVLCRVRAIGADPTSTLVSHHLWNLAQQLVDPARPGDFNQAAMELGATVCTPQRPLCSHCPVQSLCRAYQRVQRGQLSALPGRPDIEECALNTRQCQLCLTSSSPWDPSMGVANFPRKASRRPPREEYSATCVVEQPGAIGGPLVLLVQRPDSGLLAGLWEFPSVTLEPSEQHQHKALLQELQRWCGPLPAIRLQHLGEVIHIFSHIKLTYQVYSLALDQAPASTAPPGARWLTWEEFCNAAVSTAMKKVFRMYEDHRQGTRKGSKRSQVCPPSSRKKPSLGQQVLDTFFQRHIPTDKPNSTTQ

T2: GST-hMYH(1-350) (human, UniProt Q9UIF7-3 1-350)
T2 construct: also called MYHΔC3; ΔC3; source: purified, immobilised on beads
T2 sequence (looked up): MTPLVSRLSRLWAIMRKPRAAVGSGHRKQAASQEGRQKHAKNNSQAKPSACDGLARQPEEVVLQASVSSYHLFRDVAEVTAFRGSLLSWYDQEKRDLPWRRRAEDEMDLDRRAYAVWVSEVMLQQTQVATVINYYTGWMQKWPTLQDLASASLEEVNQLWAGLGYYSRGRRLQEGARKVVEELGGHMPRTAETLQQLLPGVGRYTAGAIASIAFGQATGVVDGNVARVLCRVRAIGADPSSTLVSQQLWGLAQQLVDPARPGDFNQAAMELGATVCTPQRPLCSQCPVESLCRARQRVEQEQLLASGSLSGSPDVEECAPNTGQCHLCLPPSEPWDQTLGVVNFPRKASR

T3: GST-hMYH(1-350) Q324H (human, UniProt Q9UIF7-3 1-350, Q324H)
T3 construct: human MutY homolog (MYH, MUTYH), residues 1-350 with Q324H, a variant found in MAP patients; also called hMYH^Q324H; Q338H according to the new nomenclature; source: purified, immobilised on beads
T3 sequence (looked up): T2 sequence (looked up) with Q324H

T4: GST-hRad9 (human, UniProt Q99638 1-391)
T4 construct: human Rad9, subunit of the Rad9-Rad1-Hus1 checkpoint clamp; also called GST-Rad9; GST-tagged hRad9; source: immobilised on beads
T4 sequence (looked up): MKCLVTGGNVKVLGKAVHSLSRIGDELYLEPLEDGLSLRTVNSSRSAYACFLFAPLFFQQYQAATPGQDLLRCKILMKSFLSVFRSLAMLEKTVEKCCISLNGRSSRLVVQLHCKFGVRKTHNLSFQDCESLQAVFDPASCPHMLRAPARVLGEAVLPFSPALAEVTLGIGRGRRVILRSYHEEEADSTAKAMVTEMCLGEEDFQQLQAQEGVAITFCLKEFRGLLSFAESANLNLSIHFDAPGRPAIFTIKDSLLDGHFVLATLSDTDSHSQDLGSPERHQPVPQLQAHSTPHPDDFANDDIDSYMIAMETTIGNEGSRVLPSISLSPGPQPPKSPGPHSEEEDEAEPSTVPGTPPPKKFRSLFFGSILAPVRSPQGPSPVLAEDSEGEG

B1: GST-hRad1 (natural protein, human, UniProt O60671 1-282, looked up)
chain: MPLLTQQIQDEDDQYSLVASLDNVRNLSTILKAIHFREHATCFATKNGIKVTVENAKCVQANAFIQAGIFQEFKVQEESVTFRINLTVLLDCLSIFGSSPMPGTLTALRMCYQGYGYPLMLFLEEGGVVTVCKINTQEPEETLDFDFCSTNVINKIILQSEGLREAFSELDMTSEVLQITMSPDKPYFRLSTFGNAGSSHLDYPKDSDLMEAFHCNQTQVNRYKISLLKPSTKALVLSCKVSIRTDNRGFLSLQYMIRNEDGQICFVEYYCCPDEEVPESES
notes: human Rad1, subunit of the Rad9-Rad1-Hus1 checkpoint clamp; also called GST-Rad1; GST-tagged hRad1; source: immobilised on beads
B2: FLAG-tagged mouse Sirt6 (FLAG-mSirt6), wild type (natural protein, UniProt P59941 1-334, looked up)
chain: MSVNYAAGLSPYADKGKCGLPEIFDPPEELERKVWELARLMWQSSSVVFHTGAGISTASGIPDFRGPHGVWTMEERGLAPKFDTTFENARPSKTHMALVQLERMGFLSFLVSQNVDGLHVRSGFPRDKLAELHGNMFVEECPKCKTQYVRDTVVGTMGLKATGRLCTVAKTRGLRACRGELRDTILDWEDSLPDRDLMLADEASRTADLSVTLGTSLQIRPSGNLPLATKRRGGRLVIVNLQPTKHDRQADLRIHGYVDEVMCRLMKHLGLEIPAWDGPCVLDKALPPLPRPVALKAEPPVHLNGAVHVSYKSKPNSPILHRPPKRVKTEAAPS
notes: mouse Sirt6, full length cDNA in pcDNA3.1; about 90% pure
B3: GST-hMYH(65-350) (domain or fragment, human, UniProt Q9UIF7-3 65-350, looked up)
chain: ASVSSYHLFRDVAEVTAFRGSLLSWYDQEKRDLPWRRRAEDEMDLDRRAYAVWVSEVMLQQTQVATVINYYTGWMQKWPTLQDLASASLEEVNQLWAGLGYYSRGRRLQEGARKVVEELGGHMPRTAETLQQLLPGVGRYTAGAIASIAFGQATGVVDGNVARVLCRVRAIGADPSSTLVSQQLWGLAQQLVDPARPGDFNQAAMELGATVCTPQRPLCSQCPVESLCRARQRVEQEQLLASGSLSGSPDVEECAPNTGQCHLCLPPSEPWDQTLGVVNFPRKASR
notes: also called MYHΔC5; ΔC5; source: purified, immobilised on beads
B4: His-tagged human Hus1 (hHus1) (natural protein, UniProt O60921 1-280, looked up)
chain: MKFRAKIVDGACLNHFTRISNMIAKLAKTCTLRISPDKLNFILCDKLANGGVSMWCELEQENFFNEFQMEGVSAENNEIYLELTSENLSRALKTAQNARALKIKLTNKHFPCLTVSVELLSMSSSSRIVTHDIPIKVIPRKLWKDLQEPVVPDPDVSIYLPVLKTMKSVVEKMKNISNHLVIEANLDGELNLKIETELVCVTTHFKDLGNPPLASESTHEDRNVEHMAEVHIDIRKLLQFLAGQQVNPTKALCNIVNNKMVHFDLLHEDVSLQYFIPALS
notes: human Hus1, subunit of the Rad9-Rad1-Hus1 checkpoint clamp; pET21a usually adds a C-terminal His6 (surmise); source: E. coli BL21-Star with pET21a-hHus1, purified

Substitutions are numbered along the chain they refer to.

Assay [1] concerns the target B2. The assay can be described thus: pull-down; GST fusion protein immobilised on beads; 50 ug/ml ethidium bromide added for 30 min before the partner; bound protein detected by Western blot (FLAG, hAPE1 or His antibody); in some panels a further purified partner (hAPE1, mSirt6, hHus1) was added. As to conditions: both partners purified.
The target of assay [2] is human APE1 (hAPE1), recombinant (human, UniProt P27695 1-318). The assay can be described thus: cell-based or functional assay.
Sequence of human APE1 (hAPE1), recombinant (P27695 whole entry): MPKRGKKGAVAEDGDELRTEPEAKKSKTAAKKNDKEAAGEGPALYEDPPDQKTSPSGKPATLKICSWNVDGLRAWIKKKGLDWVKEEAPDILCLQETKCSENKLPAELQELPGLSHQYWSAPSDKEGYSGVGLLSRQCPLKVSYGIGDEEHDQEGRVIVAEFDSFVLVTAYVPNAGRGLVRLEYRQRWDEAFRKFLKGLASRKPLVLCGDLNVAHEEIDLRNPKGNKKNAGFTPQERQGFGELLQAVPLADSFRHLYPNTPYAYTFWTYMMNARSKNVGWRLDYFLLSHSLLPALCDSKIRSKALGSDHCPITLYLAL
The target in assay [3] is T1, mouse Myh (mMyh), recombinant. The assay can be described thus: cell-based or functional assay.
For the next assay, the target named is T2, GST-hMYH(1-350). The assay can be described thus: pull-down; GST fusion protein immobilised on beads; 50 ug/ml ethidium bromide added for 30 min before the partner; bound protein detected by Western blot (FLAG, hAPE1 or His antibody); in some panels a further purified partner (hAPE1, mSirt6, hHus1) was added. The note with it: both partners purified.
The target in another assay is T3, GST-hMYH(1-350) Q324H. The assay is described as above. The note with it: both partners purified.
The next assay concerns the target T4, GST-hRad9. Described as above. As to conditions: both partners purified.

On to B1, for which the binding result in assay [1] was “binds”.

On to B2, for which, in assay [2], the “3'-phosphodiesterase activity of hAPE1 on 3'-FAM-labeled U/G-DNA (0.01 nM hAPE1, 1-16 nM mSirt6); fold stimulation at a Sirt6/APE1 ratio of 400” value was found to be 2 fold and the “AP endonuclease activity of hAPE1 on FAM-labeled THF/G-DNA (0.002 nM hAPE1, 1-8 nM mSirt6); fold stimulation at a Sirt6/APE1 ratio of 3,000” value was 2 fold. Besides, in assay [3], the “mMyh glycosylase activity on FAM-labeled A/G^o-DNA (0.5 nM mMyh, 1-32 nM mSirt6); fold stimulation at a Sirt6/Myh ratio of 32” value was determined as 3 fold. Besides, in the assay with GST-hMYH(1-350), the “fold stimulation of binding with a tenfold excess of hAPE1, against no hAPE1” value was 3 fold. The binding result with GST-hMYH(1-350) Q324H is “binds”. In the assay with GST-hRad9, the binding result is reported as “binds”.

Take B3: the binding result in assay [1] is listed as “binds”.

On to B4, for which, in the assay with GST-hMYH(1-350), the binding result was “binds”.
